± gives the uncertainty stated by the source.
Experiment: self-splicing fitness, log relative to wild type (ln ratio); higher = more splicing; Tetrahymena group I intron in knt gene, E. coli kanamycin selection, DiMSum; sequences stand for … in CUCUCU…GGAGGGAAAAGUUAUCAGGCAUGCACCUGGUAGCUAGUCUUUAAACCAAUAGAUUGCAUCGGUUUAAAAGGCAAGACCGUCAAAUUGCGGGAAAGGGGUCAACAGCCGUUCAGUACCAAGUCUCAGGGGAAACUUUGAGAUGGCCUUGCAAAGGGUAUGGUAAUAAGCUGACGGACAUGGUCCUAACCACGCAGCCAAGUCCUAAGUCAACAGAUCUUCUGUUGAUAUGGAUGCAGUUCACAGACUAAAUGUCGGUCGGGGAAGAUGUAUUCUUCUCAUAAGAUAUAGUCGGACCUCUCCUUAAUGGGAGCUAGCGGAUGAAGUGAUGCAACACUGGAGCCGCUGGGAACUAAUUUGUAUGCGAAAGUAUAUUGAUUAGUUUUGGAGUACUCGUGGUCG
Procedure, shortened: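 Six replicate transformations of E. coli BL21(DE3) with a pET-22b(+) library were grown overnight at 37°C or 30°C. The library randomised all eight P1ex-region intron nucleotides, the intron lying in the knt kanamycin-resistance gene, and plates were LB agar with or without 25 μg/mL kanamycin plus 100 μg/mL carbenicillin, 50 μM IPTG and 0.2% rhamnose. Pooled colonies were amplicon-sequenced on an Illumina HiSeq 2500, and fitness is the DiMSum error-weighted combination of wild-type-normalised replicate fold changes, kanamycin versus none.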

Row | Sequence | self-splicing fitness (ln) (30 °C) | self-splicing fitness (ln) (37 °C)
1 | UGACAGCAAUAUUACGAGGU | -3.28 ± 0.15 | -2.65 ± 0.21
2 | UGACAGCAAUAUUACGAUCU | -0.412 ± 0.07 | 0.277 ± 0.082
3 | UGACAGCAAUAUUACGCAGA | -1.96 ± 0.15 | -1.11 ± 0.13
4 | UGACAGCAAUAUUACGCAUA | -0.976 ± 0.07 | 0.0999 ± 0.082
5 | UGACAGCAAUAUUACGCCAA | -1.51 ± 0.14 | -0.461 ± 0.12
6 | UGACAGCAAUAUUACGCGGG | -2.59 ± 0.17 | -1.24 ± 0.14
7 | UGACAGCAAUAUUACGCGUC | -4.67 ± 0.38 | -3.62 ± 0.27
8 | UGACAGCAAUAUUACGGAGU | -4.14 ± 0.2 | -2.79 ± 0.13
9 | UGACAGCAAUAUUACGGGAC | -4.05 ± 0.31 | -2.31 ± 0.22
10 | UGACAGCAAUAUUACGUCUC | -4.29 ± 0.34 | -1.47 ± 0.22
11 | UGACAGCAAUAUUACGUGCA | -1.06 ± 0.079 | 0.394 ± 0.11
12 | UGACAGCAAUAUUACGUGCU | -4.32 ± 0.24 | -1.04 ± 0.11
13 | UGACAGCAAUAUUACGUUCA | -0.939 ± 0.076 | 0.0202 ± 0.08
14 | UGACAGCAAUAUUACGUUGG | -2.08 ± 0.12 | -1.82 ± 0.13
15 | UGAGAGCAAUAUUACGAAGU | -3.04 ± 0.26 | -2.55 ± 0.31
16 | UGAGAGCAAUAUUACGACAG | -4.41 ± 0.39 | -3.07 ± 0.34
17 | UGAGAGCAAUAUUACGAGCA |  | 0.211 ± 0.27
18 | UGAGAGCAAUAUUACGAUAU |  | -2.8 ± 0.44
19 | UGAGAGCAAUAUUACGAUCG | -2.1 ± 0.13 | -2.12 ± 0.17
20 | UGAGAGCAAUAUUACGCAUU | -3.34 ± 0.38 | 
21 | UGAGAGCAAUAUUACGCCAA |  | -1.98 ± 0.37
22 | UGAGAGCAAUAUUACGCCGG | -3.37 ± 0.47 | 
23 | UGAGAGCAAUAUUACGCCUA | -1.58 ± 0.22 | -0.073 ± 0.21
24 | UGAGAGCAAUAUUACGCCUG | -2.46 ± 0.21 | -1.91 ± 0.32
25 | UGAGAGCAAUAUUACGCGCG | -2.15 ± 0.2 | -1.23 ± 0.24

Row | Sequence | self-splicing fitness (ln) (30 °C) | self-splicing fitness (ln) (37 °C)
26 | UGAGAGCAAUAUUACGCGGC | -3.04 ± 0.46 | -1.58 ± 0.44
27 | UGAGAGCAAUAUUACGCUAG | -3.66 ± 0.47 | 
28 | UGAGAGCAAUAUUACGCUAU | -3.09 ± 0.35 | -1.48 ± 0.46
29 | UGAGAGCAAUAUUACGGCCG | -3.57 ± 0.43 | -1.38 ± 0.25
30 | UGAGAGCAAUAUUACGGCGG | -3.73 ± 0.35 | -1.9 ± 0.3
31 | UGAGAGCAAUAUUACGGUAA | -4.27 ± 0.25 | -2.27 ± 0.23
32 | UGAGAGCAAUAUUACGGUAC |  | -2 ± 0.38
33 | UGAGAGCAAUAUUACGGUAU | -3.07 ± 0.2 | -1.53 ± 0.3
34 | UGAGAGCAAUAUUACGUACA | -2.02 ± 0.21 | -0.955 ± 0.26
35 | UGAGAGCAAUAUUACGUCUA | -1.4 ± 0.11 | -0.679 ± 0.12
36 | UGAUAGCAAUAUUACGAAUG | -1.19 ± 0.12 | -1.14 ± 0.16
37 | UGAUAGCAAUAUUACGACCG | 0.139 ± 0.13 | 0.451 ± 0.17
38 | UGAUAGCAAUAUUACGACCU | -1.09 ± 0.17 | -0.0258 ± 0.18
39 | UGAUAGCAAUAUUACGAGAC |  | -2.59 ± 0.34
40 | UGAUAGCAAUAUUACGAGUA | -1.71 ± 0.16 | -1.23 ± 0.13
41 | UGAUAGCAAUAUUACGAUCG | -0.236 ± 0.14 | -0.942 ± 0.15
42 | UGAUAGCAAUAUUACGAUUA | -0.749 ± 0.11 | -0.000856 ± 0.1
43 | UGAUAGCAAUAUUACGCCCA | 0.955 ± 0.13 | -0.0259 ± 0.17
44 | UGAUAGCAAUAUUACGCGCG | -0.57 ± 0.086 | -0.283 ± 0.12
45 | UGAUAGCAAUAUUACGCGGU | -3.34 ± 0.27 | -1.99 ± 0.22
46 | UGAUAGCAAUAUUACGCUGA | -1.79 ± 0.2 | -0.53 ± 0.12
47 | UGAUAGCAAUAUUACGGCAU | -2.68 ± 0.13 | -1.41 ± 0.13
48 | UGAUAGCAAUAUUACGGCGG | -0.138 ± 0.095 | -0.142 ± 0.13
49 | UGAUAGCAAUAUUACGGUGC | -2.98 ± 0.35 | 
50 | UGAUAGCAAUAUUACGUAGG | -1.66 ± 0.16 | -0.583 ± 0.16

Row | Sequence | self-splicing fitness (ln) (30 °C) | self-splicing fitness (ln) (37 °C)
51 | UGAUAGCAAUAUUACGUAUC | -2.67 ± 0.48 | 
52 | UGAUAGCAAUAUUACGUCGA | -1.69 ± 0.11 | -0.847 ± 0.1
53 | UGAUAGCAAUAUUACGUCUG | -0.116 ± 0.085 | 0.318 ± 0.1
54 | UGAUAGCAAUAUUACGUGUG | -1.45 ± 0.1 | -0.804 ± 0.098
55 | UGAUAGCAAUAUUACGUUUC | -2.72 ± 0.22 | -2.29 ± 0.41
56 | UGCAAGCAAUAUUACGAAUG | -1.35 ± 0.085 | -0.724 ± 0.12
57 | UGCAAGCAAUAUUACGACUG | 0.127 ± 0.065 | 0.37 ± 0.087
58 | UGCAAGCAAUAUUACGAUGG | -1.25 ± 0.1 | -0.29 ± 0.12
59 | UGCAAGCAAUAUUACGCAAA | -2.5 ± 0.17 | -2 ± 0.15
60 | UGCAAGCAAUAUUACGCAUC | -1.87 ± 0.45 | -1.52 ± 0.45
61 | UGCAAGCAAUAUUACGCUAG | -2.55 ± 0.27 | -2.42 ± 0.33
62 | UGCAAGCAAUAUUACGCUCG | -3.78 ± 0.27 | -1.83 ± 0.2
63 | UGCAAGCAAUAUUACGGAAC |  | -0.851 ± 0.25
64 | UGCAAGCAAUAUUACGGGAG | -2.41 ± 0.096 | -1.71 ± 0.098
65 | UGCAAGCAAUAUUACGGUAU | -3.81 ± 0.21 | -1.15 ± 0.14
66 | UGCAAGCAAUAUUACGGUUA | 0.147 ± 0.075 | 0.11 ± 0.078
67 | UGCAAGCAAUAUUACGUAUA | -2.49 ± 0.18 | -0.379 ± 0.12
68 | UGCAAGCAAUAUUACGUCCG | 0.463 ± 0.1 | 0.55 ± 0.12
69 | UGCAAGCAAUAUUACGUGGA | -2.88 ± 0.17 | -1.36 ± 0.11
70 | UGCAAGCAAUAUUACGUGGU | -4.13 ± 0.17 | -2.84 ± 0.16
71 | UGCAAGCAAUAUUACGUUCA | 0.123 ± 0.06 | 0.454 ± 0.088
72 | UGCAAGCAAUAUUACGUUCU | -0.995 ± 0.069 | -0.423 ± 0.084
73 | UGCCAGCAAUAUUACGAAUA | -2.53 ± 0.16 | -0.828 ± 0.12
74 | UGCCAGCAAUAUUACGACAA | -1.19 ± 0.17 | 0.212 ± 0.13
75 | UGCCAGCAAUAUUACGACGU | -1.75 ± 0.14 | -1.26 ± 0.14

Row | Sequence | self-splicing fitness (ln) (30 °C) | self-splicing fitness (ln) (37 °C)
76 | UGCCAGCAAUAUUACGCAUG | -1.28 ± 0.085 | -1.43 ± 0.13
77 | UGCCAGCAAUAUUACGCUAC | -3.47 ± 0.16 | -2.78 ± 0.2
78 | UGCCAGCAAUAUUACGCUUC | -3.19 ± 0.23 | -1.86 ± 0.22
79 | UGCCAGCAAUAUUACGGACU | -0.709 ± 0.075 | 0.139 ± 0.089
80 | UGCCAGCAAUAUUACGGCUA | 0.121 ± 0.12 | 0.121 ± 0.12
81 | UGCCAGCAAUAUUACGGGCU | -2.6 ± 0.19 | -1.61 ± 0.18
82 | UGCCAGCAAUAUUACGGUAG | -1.89 ± 0.12 | -0.428 ± 0.11
83 | UGCCAGCAAUAUUACGUAUU | -2.8 ± 0.13 | -2.56 ± 0.16
84 | UGCCAGCAAUAUUACGUCAU | -3 ± 0.16 | -2.38 ± 0.18
85 | UGCCAGCAAUAUUACGUUGA | -2.21 ± 0.074 | -1.26 ± 0.082
86 | UGCCAGCAAUAUUACGUUGC | -2.93 ± 0.17 | -2.93 ± 0.18
87 | UGCGAGCAAUAUUACGACAC | -2.71 ± 0.3 | 0.803 ± 0.27
88 | UGCGAGCAAUAUUACGACGC | -3.46 ± 0.25 | 
89 | UGCGAGCAAUAUUACGACUA | -1.26 ± 0.23 | -1.09 ± 0.28
90 | UGCGAGCAAUAUUACGAGCC |  | -1.67 ± 0.43
91 | UGCGAGCAAUAUUACGAGUA | -0.846 ± 0.14 | -1.84 ± 0.2
92 | UGCGAGCAAUAUUACGAUAG | -3.32 ± 0.27 | -1.7 ± 0.38
93 | UGCGAGCAAUAUUACGAUGA | -2.13 ± 0.16 | -1.4 ± 0.13
94 | UGCGAGCAAUAUUACGCACG | -2.22 ± 0.28 | -1.98 ± 0.36
95 | UGCGAGCAAUAUUACGCCGC | -3.34 ± 0.36 | -1.3 ± 0.43
96 | UGCGAGCAAUAUUACGCUAA | -1.92 ± 0.21 | -2.48 ± 0.26
97 | UGCGAGCAAUAUUACGGCCG | -1 ± 0.38 | 
98 | UGCGAGCAAUAUUACGGCGU | -2.58 ± 0.18 | -0.48 ± 0.2
99 | UGCGAGCAAUAUUACGGGAG | -4.04 ± 0.19 | -2.61 ± 0.17

Reference: the supplement of paper PMC7877785
